In patent US20210388087A1 (Chugai, published 2021):
Residue numbers refer to the chain shown, from its start. Names may count otherwise.

T1: Human CD3eg linker (human)
T1 construct: single-chain construct; also called recombinant human CD3
T1 chain: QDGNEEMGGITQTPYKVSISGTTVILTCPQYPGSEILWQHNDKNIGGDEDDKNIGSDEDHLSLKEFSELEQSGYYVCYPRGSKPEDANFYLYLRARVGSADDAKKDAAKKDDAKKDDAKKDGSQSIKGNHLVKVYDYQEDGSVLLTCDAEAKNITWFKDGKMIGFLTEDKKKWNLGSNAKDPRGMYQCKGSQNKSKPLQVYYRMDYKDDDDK

B1: dBBDu183H S99D/dBBDu072L (antibody, name in Kabat numbering, V domains shown)
VH: QVQLVESGGGLVQPGRSLRLSCAASGFTFSNAWMHWVRQAPGKGLEWVAQIKDKGNAYAAYYAPSVKGRFTISRDDSKNSIYLQMNSLKTEDTAVYYCHYVHYADASTVLPAFGVDAWGQGTTVTVSS
VL: DIVMTQSPLSLPVTPGEPASISCQASQELVHMNRNTYLHWYQQKPGQAPRLLIYKVSNRFPGVPDRFSGSGSGTDFTLKISRVEAEDVGVYYCAQGTSVPFTFGQGTKLEIK
B2: dBBDu183H S99H/dBBDu072L (antibody, name in Kabat numbering, V domains shown)
VH: B1 VH with D105H
VL: B1 VL
B3: dBBDu183H T100bN/dBBDu072L (antibody, name in Kabat numbering, V domains shown)
VH: B1 VH with D105S, T108N
VL: B1 VL
B4: dBBDu183H S99V/dBBDu072L (antibody, name in Kabat numbering, V domains shown)
VH: B1 VH with D105V
VL: B1 VL
B5: dBBDu183H S99N/dBBDu072L (antibody, name in Kabat numbering, V domains shown)
VH: B1 VH with D105N
VL: B1 VL
B6: dBBDu183H S99Q/dBBDu072L (antibody, name in Kabat numbering, V domains shown)
VH: B1 VH with D105Q
VL: B1 VL
B7: dBBDu183H S100aD/dBBDu072L (antibody, name in Kabat numbering, V domains shown)
VH: B1 VH with D105S, S107D
VL: B1 VL
B8: dBBDu183H S100aF/dBBDu072L (antibody, name in Kabat numbering, V domains shown)
VH: B1 VH with D105S, S107F
VL: B1 VL
B9: dBBDu183H S99K/dBBDu072L (antibody, name in Kabat numbering, V domains shown)
VH: B1 VH with D105K
VL: B1 VL
B10: dBBDu183H T100bD/dBBDu072L (antibody, name in Kabat numbering, V domains shown)
VH: B1 VH with D105S, T108D
VL: B1 VL
B11: dBBDu183H S99G/dBBDu072L (antibody, name in Kabat numbering, V domains shown)
VH: B1 VH with D105G
VL: B1 VL
B12: dBBDu183H S100aR/dBBDu072L (antibody, name in Kabat numbering, V domains shown)
VH: B1 VH with D105S, S107R
VL: B1 VL
B13: dBBDu183H T100bE/dBBDu072L (antibody, name in Kabat numbering, V domains shown)
VH: B1 VH with D105S, T108E
VL: B1 VL
B14: dBBDu183H T100bF/dBBDu072L (antibody, name in Kabat numbering, V domains shown)
VH: B1 VH with D105S, T108F
VL: B1 VL
B15: dBBDu183H S100aY/dBBDu072L (antibody, name in Kabat numbering, V domains shown)
VH: B1 VH with D105S, S107Y
VL: B1 VL
B16: dBBDu183H S99R/dBBDu072L (antibody, name in Kabat numbering, V domains shown)
VH: B1 VH with D105R
VL: B1 VL
B17: dBBDu183H S99T/dBBDu072L (antibody, name in Kabat numbering, V domains shown)
VH: B1 VH with D105T
VL: B1 VL
B18: dBBDu183H S100aN/dBBDu072L (antibody, name in Kabat numbering, V domains shown)
VH: B1 VH with D105S, S107N
VL: B1 VL
B19: dBBDu183H S100aG/dBBDu072L (antibody, name in Kabat numbering, V domains shown)
VH: B1 VH with D105S, S107G
VL: B1 VL
B20: dBBDu183H T100bG/dBBDu072L (antibody, name in Kabat numbering, V domains shown)
VH: B1 VH with D105S, T108G
VL: B1 VL
B21: dBBDu183H S100aH/dBBDu072L (antibody, name in Kabat numbering, V domains shown)
VH: B1 VH with D105S, S107H
VL: B1 VL
B22: dBBDu183H T100bK/dBBDu072L (antibody, name in Kabat numbering, V domains shown)
VH: B1 VH with D105S, T108K
VL: B1 VL
B23: dBBDu183H S100aT/dBBDu072L (antibody, name in Kabat numbering, V domains shown)
VH: B1 VH with D105S, S107T
VL: B1 VL
B24: dBBDu183H S100aE/dBBDu072L (antibody, name in Kabat numbering, V domains shown)
VH: B1 VH with D105S, S107E
VL: B1 VL
B25: dBBDu183H S100aK/dBBDu072L (antibody, name in Kabat numbering, V domains shown)
VH: B1 VH with D105S, S107K
VL: B1 VL
B26: dBBDu183H S100aQ/dBBDu072L (antibody, name in Kabat numbering, V domains shown)
VH: B1 VH with D105S, S107Q
VL: B1 VL
B27: dBBDu183H T100bH/dBBDu072L (antibody, name in Kabat numbering, V domains shown)
VH: B1 VH with D105S, T108H
VL: B1 VL
B28: dBBDu183H S99W/dBBDu072L (antibody, name in Kabat numbering, V domains shown)
VH: B1 VH with D105W
VL: B1 VL
B29: dBBDu183H S100aV/dBBDu072L (antibody, name in Kabat numbering, V domains shown)
VH: B1 VH with D105S, S107V
VL: B1 VL
B30: dBBDu183H S99E/dBBDu072L (antibody, name in Kabat numbering, V domains shown)
VH: B1 VH with D105E
VL: B1 VL
B31: dBBDu183H S99Y/dBBDu072L (antibody, name in Kabat numbering, V domains shown)
VH: B1 VH with D105Y
VL: B1 VL
B32: dBBDu183H S100aW/dBBDu072L (antibody, name in Kabat numbering, V domains shown)
VH: B1 VH with D105S, S107W
VL: B1 VL
B33: dBBDu183H S99F/dBBDu072L (antibody, name in Kabat numbering, V domains shown)
VH: B1 VH with D105F
VL: B1 VL

Target: T1, Human CD3eg linker
Assay: SPR, vs unmutated H183/L072

| fold change of affinity [fold] | Binder |
| --- | --- |
| 0.3 | B1 |
| 0.7 | B2 |
| 1 | B3 |
| 0.8 | B4 |
| 0.6 | B5 |
| 1 | B6 |
| 0.6 | B7 |
| 1.6 | B8 |
| 1.8 | B9 |
| 0.6 | B10 |
| 1 | B11 |
| 0.6 | B12 |
| 0.6 | B13 |
| 1.2 | B14 |
| 1.2 | B15 |
| 2 | B16 |
| 0.9 | B17 |

| fold change of affinity [fold] | Binder |
| --- | --- |
| 0.8 | B18 |
| 1.2 | B19 |
| 1.1 | B20 |
| 1.1 | B21 |
| 1.3 | B22 |
| 0.9 | B23 |
| 0.6 | B24 |
| 0.9 | B25 |
| 0.5 | B26 |
| 1.2 | B27 |
| 0.9 | B28 |
| 1 | B29 |
| 0.3 | B30 |
| 0.8 | B31 |
| 1.6 | B32 |
| 1 | B33 |
